Patent publication US20210403506A1 (XDCEXPLORER SHANGHAI, published 2021)
Where two headings read alike, the source gives them in different places. Square brackets hold non-standard residues; d marks the D form. Ends that are not written are not given here. Tic = O=C(O)[C@@H]1Cc2ccccc2CN1

Assays:
[1] = molecular target: T1, human Chemokine like receptor 1 (human, UniProt Q99788 1-373); assay: cell-based or functional assay
T1 sequence (looked up): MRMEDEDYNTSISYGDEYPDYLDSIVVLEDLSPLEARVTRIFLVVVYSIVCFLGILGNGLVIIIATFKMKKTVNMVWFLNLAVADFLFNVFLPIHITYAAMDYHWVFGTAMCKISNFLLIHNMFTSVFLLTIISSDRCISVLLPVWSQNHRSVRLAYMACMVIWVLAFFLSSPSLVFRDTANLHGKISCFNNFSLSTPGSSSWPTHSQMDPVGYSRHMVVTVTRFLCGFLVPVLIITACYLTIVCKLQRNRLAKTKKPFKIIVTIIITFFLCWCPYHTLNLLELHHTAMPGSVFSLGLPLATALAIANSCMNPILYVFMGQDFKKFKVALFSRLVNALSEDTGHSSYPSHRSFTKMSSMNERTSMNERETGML

[2] = molecular target: T1, human Chemokine like receptor 1; assay: cell-based or functional assay; remark: listed apart in the source

{2,3,4‑trihydroxybenzoyl}-[dY]FLP[dS]QF[dA][Tic]S-OH [YW-129] was tested, and the “EC50 (µM), activation of Tango CMKLR1-bla U2OS cells” value (“EC50 (µM), activation” below) [1] was 0.0091 µM.

[dY]FLP[dS]QF[dA][Tic]S-OH [YW-3] was tested, and the “EC50 (µM), activation” value [2] was 0.019 µM.

In the case of {2,6‑dihydroxybenzoyl}-[dY]FLP[dS]QF[dA][Tic]S-OH [YW-128], the “EC50 (µM), activation” value [1] is reported as 0.02 µM.
